Publication PMC8221060, “Interplay between chromophore binding and domain assembly by the B12-dependent photoreceptor protein, CarH†” (Chemical Science, 2021)
Values belong to the molecule of their own block, whether it stands above or below them.

What was measured:
[1] = biological target: TtCarH G192Q variant (Thermus thermophilus) (UniProt Q53W62); experiment: native MS; native ion mobility mass spectrometry; G192Q without AdoCbl; monomer to dimer
[2] = biological target: TtCarH G192Q variant (Thermus thermophilus) (UniProt Q53W62); experiment: stopped-flow fluorescence; quenching of protein emission (excitation at 280 nm) after rapid mixing of apo-protein with AdoCbl at saturating concentrations (≥10×); kapp of the second phase against protein concentration, fit linearly; monomer to dimer step taken as rate-limiting
[3] = biological target: TtCarH G192Q variant (Thermus thermophilus) (UniProt Q53W62); experiment: native MS; native ion mobility mass spectrometry; G192Q with increasing molar ratios of AdoCbl; monomer to dimer
[4] = biological target: the molecule itself; experiment: native MS; native ion mobility mass spectrometry; WT TtCarH, 10 μM apo-protein, with AdoCbl from sub-stoichiometric quantities to a two-fold excess
[5] = biological target: the molecule itself; experiment: stopped-flow fluorescence; quenching of protein emission (excitation at 280 nm) after rapid mixing of apo-protein with AdoCbl at saturating concentrations (≥10×); kapp of the second phase against protein concentration, fit linearly; monomer to dimer step taken as rate-limiting
[6] = biological target: the molecule itself; experiment: native MS; native ion mobility mass spectrometry; WT TtCarH, 10 μM apo-protein, no B12 added; monomer to dimer

- stoichiometry N [1]: 2
- kon [2]: 45100 M⁻¹ s⁻¹
- stoichiometry N [3]: 2
Molecule: TtCarH G192Q variant (from UniProt Q53W62 1-285) (natural protein)

B1: CarH from Thermus thermophilus (TtCarH), wild type (natural protein)
chain: MTSSGVYTIAEVEAMTGLSAEVLRQWERRYGFPKPRRTPGGHRLYSAEDVEALKTIKRWLEEGATPKAAIRRYLAQEVRPEDLGTGLLEALLRGDLAGAEALFRRGLRFWGPEGVLEHLLLPVLREVGEAWHRGEIGVAEEHLASTFLRARLQELLDLAGFPPGPPVLVTTPPGERHEIGAMLAAYHLRRKGVPALYLGPDTPLPDLRALARRLGAGTVVLSAVLSEPLRALPDGALKDLAPRVFLGGQGAGPEEARRLGAEYMEDLKGLAEALWLPRGPEKEAI
notes: CarH, B12-dependent photoreceptor and transcriptional regulator of Thermus thermophilus; Written as the monomer, which associates with itself to dimers and tetramers; The cofactor (AdoCbl or MeCbl, small molecules) was added or left out as told in each assay; also called WT TtCarH; WT
- stoichiometry N [4]: 4
- kon [5]: 50400 ± 2300 M⁻¹ s⁻¹
- stoichiometry N [6]: 2
